Target: C. jejuni outer membrane channel CmeC (C. jejuni) (UniProt Q8RTE3)
Assay: crystal structure

C. jejuni outer membrane channel CmeC (from UniProt Q8RTE3 1-492) (natural protein)
stoichiometry N: 3
